According to PMC8674358, “Decoding non-canonical mRNA decay by the endoplasmic-reticulum stress sensor IRE1α” (Nature Communications, 2021):

B1: IRE1-KR-R887A, unphosphorylated (domain or fragment, human, UniProt O75460 547-977, looked up)
chain: GSSPSLEQDDGDEETSVVIVGKISFCPKDVLGHGAEGTIVYRGMFDNRDVAVKRILPECFSFADREVQLLRESDEHPNVIRYFCTEKDRQFQYIAIELCAATLQEYVEQKDFAHLGLEPITLLQQTTSGLAHLHSLNIVHRDLKPHNILISMPNAHGKIKAMISDFGLCKKLAVGRHSFSRRSGVPGTEGWIAPEMLSEDCKENPTYTVDIFSAGCVFYYVISEGSHPFGKSLQRQANILLGACSLDCLHPEKHEDVIARELIEKMIAMDPQKRPSAKHVLKHPFFWSLEKQLQFFQDVSDRIEKESLDGPIVKQLERGGRAVVKMDWRENITVPLQTDLAKFRTYKGGSVRDLLRAMRNKKHHYRELPAEVRETLGSLPDDFVCYFTSRFPHLLAHTYRAMELCSHERLFQPYYFHEPPEPQPPVTPDAL
notes: IRE1α, human, kinase-endoribonuclease (KR) module, residues G547-L977, with R887A; also called unphosphorylated R887A; source: SF9 cells, purified in-house following the same procedure as IRE1α KR; not shown: His6, N-terminal, cleaved
B2: IRE1-KR-R887A, phosphorylated (domain or fragment, human, UniProt O75460 547-977, looked up)
chain: B1 chain
modifications: phosphorylated (allowed to autophosphorylate in the presence of ATP and MgCl2); sites not stated for this mutant
notes: IRE1α, human, kinase-endoribonuclease (KR) module, residues G547-L977, with R887A; also called phosphorylated IRE1-KR-R887A; IRE1-KR-3P R887A; source: SF9 cells, purified in-house following the same procedure as IRE1α KR; autophosphorylated with 2 mM ATP and 10 mM MgCl2, then SEC; not shown: His6, N-terminal, cleaved

Molecular target: the molecule itself
Assay: cross-linking; 1 μg IRE1-KR (~0.8 μM) or various concentrations in RNA cleavage buffer (20 mM HEPES pH 7.5, 50 mM K acetate, 1 mM Mg acetate, 0.05% Triton X-100), 250 μM DSS, 1 h on ice; SDS-PAGE and IRE1α immunoblot; also with CRUK-3 (5 µM), which augmented KR-0P dimerization and oligomerization

Protein	stoichiometry N
B1	2
B2	2
